We go through 57 substances from the supplement of paper PMC12042874.

± gives the uncertainty stated by the source.

The data set in a line: amyloid nucleation score (Sup35N fusion, yeast selection) (log enrichment); library NNK2; higher = more nucleation; inactive = no reads after selection. In a few lines:
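Nucleation score: DiMSum log enrichment of output over input reads, centred on the mode score of non-aggregating sequences. Only sequences with at least 100 input reads were kept. Reads came from Illumina sequencing of plasmid inserts before and after 7 days of growth at 30°C without adenine and uracil, in psi-negative yeast expressing Sup35N fused to peptides of 20 random codons after 24 hours of induction with 100 μM copper sulfate.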
Take AIVDFTKNFIQCAY: the amyloid nucleation score entry was “inactive”.

As to MIVVCVRLYQGRYGRMPDYE, the amyloid nucleation score is -0.16 ± 0.37.

MMNCNVLMDKSSCFRYIVWG returned an amyloid nucleation score of 3.77 ± 0.051.

In turn, ETVDSESFSGCGIVFLRGSN yielded an amyloid nucleation score of -0.908 ± 0.78.

Consider YHSWVGFIRYPIISWGRMMG, for which the amyloid nucleation score result is “inactive”.

Turning to KDAPEECNYVQFKA, the amyloid nucleation score was 0.273 ± 0.61.

With IIRMNLAGDGVESWGWDRLS, the amyloid nucleation score is 1.12 ± 0.45.

Consider VAYYLCAGTSGDTFGKANQS, for which the amyloid nucleation score was 0.222 ± 0.8.

GWVKDDWDFTLMRPRFVGRG registered an amyloid nucleation score of -0.143 ± 0.76.

SSGLGTSVGSGILNSRDKDG gave an amyloid nucleation score of 0.434 ± 0.51.

The substance LSYLHG gave an amyloid nucleation score of -0.913 ± 0.63.

ALWVKGMFGGTMTRGILFLC came in with an amyloid nucleation score of -0.369 ± 1.1.

KFLKARFGYQST: the amyloid nucleation score was found to be 1.3 ± 0.13.

Substance YRVFMVPTWGGS displayed an amyloid nucleation score of 0.381 ± 0.56.

In turn, QIVWLHCLFRRFSNGATSDD had an amyloid nucleation score of -0.122 ± 0.23.

PYISWGSTGFVNAGRY displayed an amyloid nucleation score of 3.74 ± 0.072.

In the case of RMYLRSIVKSLMAWQRLGRI, the amyloid nucleation score is -0.545 ± 0.55.

With FCHRRRYIFIWNIRCLSYLN, the amyloid nucleation score result was “inactive”.

For VALMYFRFQKFDSSSSMHRF, the amyloid nucleation score came out at 2.5 ± 0.18.

As to PGSTRAFIMAVWGAPTEWER, the amyloid nucleation score came to 2.86 ± 0.16.

As for IWLDSHSSAWISWTIMI, the amyloid nucleation score was -0.585 ± 0.41.

For the substance GQNTDVTCQRYERTM, the amyloid nucleation score was determined as 0.329 ± 0.62.

Consider MFSYTVSVLDLIYKSIWECE, for which the amyloid nucleation score is -0.941 ± 0.35.

VAHSVTGFQWHACSREMNFR came in with an amyloid nucleation score of 4.57 ± 0.12.

KMMTSSFRMDGVNSTLIWLI gave an amyloid nucleation score of -0.08 ± 1.

Take GYIAYATVWGLQDNGSRSIA: the amyloid nucleation score was -0.637 ± 0.25.

EVDVIS: the amyloid nucleation score was -0.885 ± 0.64.

MVVYRVPMAQLLPS: the amyloid nucleation score entry is “inactive”.

QLFGFGYVLVV showed an amyloid nucleation score of -1.12 ± 0.78.

In turn, LRSHLEYGRLCVCTQELMRR came in with an amyloid nucleation score of 4.882 ± 0.041.

In the case of WSSHFWMFGSAVSQAWGRGW, the amyloid nucleation score turned out to be 3.17 ± 0.074.

As for RLVIGT, the amyloid nucleation score amounted to 2.41 ± 0.11.

Substance FGWGINRVYLVNM gave an amyloid nucleation score of 5.04 ± 0.088.

For YYHIDYYRYWPALLGCFKYS, the amyloid nucleation score was -0.898 ± 0.34.

As for TDRLRFIYSGGVEFFVPVLL, the amyloid nucleation score result is “inactive”.

AFVCMRVVLICKIRLNFVRA had an amyloid nucleation score of -0.519 ± 0.5.

ASDRGI: the amyloid nucleation score turned out to be 0.532 ± 0.18.

Turning to LFGSKVHSSWRPSCLFTSAV, the amyloid nucleation score turned out to be 0.377 ± 0.33.

Consider LNNNGASNGFTTYSALNVG, for which the amyloid nucleation score was -0.59 ± 0.28.

In the case of NSLRCSLIWMGQLPLSGTHV, the amyloid nucleation score result was “inactive”.

FDFRNGCGNTKVEFSMHRSG had an amyloid nucleation score of 2.86 ± 0.21.

For IDNSTMDTCIMNRSQFTIRL, the amyloid nucleation score is -0.412 ± 0.54.

SRYKWKTDVHTKWTCHF came in with an amyloid nucleation score of 1.73 ± 0.091.

For the substance WLLMYPLI, the amyloid nucleation score was -1.04 ± 0.34.

Consider LCISIRD, for which the amyloid nucleation score is -0.111 ± 0.8.

As to HINMIGWEFSVGYGWQ, the amyloid nucleation score came to 4.9 ± 0.061.

LYGMF displayed an amyloid nucleation score of -0.261 ± 0.63.

As to RWCSVGNLVRSITR, the amyloid nucleation score is 0.464 ± 0.57.

Consider RGFWRVFGCRHIVATPFEVE, for which the amyloid nucleation score is 8.675 ± 0.058.

In turn, CTFHFVSGHTTTGSR had an amyloid nucleation score of 1 ± 0.66.

Regarding LVVLWK, the amyloid nucleation score was 6.01 ± 0.061.

As for GCVPVRYIARSAWNNPDLPN, the amyloid nucleation score came to 0.829 ± 0.57.

Substance HYYWSALSSAFVNSMIVR had an amyloid nucleation score of -1.09 ± 0.76.

Turning to LSNYARGRVDVTLKNYLLLE, the amyloid nucleation score turned out to be 0.476 ± 0.51.

IGCNVESVYAGLALQMT came in with an amyloid nucleation score of 2.7 ± 0.18.

With RGDSATLVGCNVVMGRRFSL, the amyloid nucleation score was 4.32 ± 0.099.

Turning to YGESVHTR, the amyloid nucleation score is -0.446 ± 0.38.
